Experimental data: publication PMC12775570

Legend:
[1] = biological target: Recombinant human MET extracellular domain (Homo sapiens) (UniProt P08581); assay: high-speed atomic force microscopy
[2] = biological target: His-tagged recombinant human EGFR extracellular domain (Homo sapiens) (UniProt P00533); assay: high-speed atomic force microscopy

- percent of the observation period bound [1]: 87%
- percent of the observation period with both EGFR and MET bound to amivantamab [1]: 78%
- percent of the observation period with both EGFR and MET bound to amivantamab [2]: 78%
Substance: Amivantamab (bispecific antibody)
